From article PMC9170038

biological target: MS2 coat protein, dlFG mutant (Escherichia phage MS2, UniProt P03612, del68-81insG); test: 4 mM Mg2+; no ligand; RNA-MaP array; 100 mM Tris-HCl pH 7.5, 80 mM KCl, 4 mM MgCl2, 0.1 mg/mL BSA, 1 mM DTT, 0.01 mg/mL yeast tRNA, 0.01% Tween-20; protein 1.5 nM to 3 uM; 37 C (Table S3); settings: chain copies: 2; label: tethered by stalled RNA polymerase

Row | Binder | Kd [nM]
1 | Eterna 1774 (Same State - Tryptophan B) (ssRNA) RNA: CGAUCUUGGUCGGCCGCCACUACACCCACACCAAAUAGGAAAGUAGCGAGUGAUGUUUGUGACGUUAGGACCGGGACCACUGGUC | > 3000
2 | Eterna 7698835 (Same State - Arginine B) (ssRNA) RNA: GCUAUGGUAGGAAGGAGCGCUUAUUUAUUUUUACGAGUGAUGUUCGGUAGUAGAUAGUUAAAGCAGGUAGGUCGCCUACUAUAGC | > 3000
3 | Eterna 7745506 (Same State - Arginine B) (ssRNA) RNA: CCGGGCGGCCGAAGGAGCGGGCGGACCCGAGUGAUGUUCGGGUGGCCCGUGAGGGCCGGUGCCCAGGUAGGUCGCGGAUCCGCCC | > 3000
4 | Eterna 6030125 (Exclusion 6) (ssRNA) RNA: GUGCGUGGCUAGGAUAUUGUGGAGUUUUGUCAGCGAGAAGGAGCCACAUGAGGAUCACCCAUGUGGUGUUGCUC | 175
5 | Eterna 11801 (Exclusion 2) (ssRNA) RNA: AGUAACAGAGGAUAUACUGUUUUAUGUGUUUAUUAUUUUGAACAUGAGGAUCACCCAUGUAGAAGGCUGAAUAA | 23.2
6 | Eterna 13502 (Sensor v3, turn-off variant 2) (ssRNA) RNA: AGUAGAUCUACGCUUGCGUGGAUCUGCAAUGUAGGUGUUACAUGAGGAUCACCCAUGUCCUCAUUUGCUCGUCUUAG | 312
7 | Eterna 5989570 (Sensor, turn-off variant 1) (ssRNA) RNA: GUCAUCACACAUGGGAUCAACAUGAGGAUCACCCAUGUUGUCAAGUUUUUUGCUCGUCUUAUAAUACGUUUGAUGAC | 30.2
8 | Eterna 6415900 (Inverted Small Loop Same State NG 3) (ssRNA) RNA: UGCUACGUUUCGUAGCAGUGUCAUCGAGAAGGCCCUGACAUGAGGAUCACCCAUGUUGUUACAUGGGAGGAUAUCGAUGAUACA | 12.1
9 | Eterna 6430466 (Small Loop Same State NG 3) (ssRNA) RNA: UUCGAGCCAAGGCUCGCGAGUACACAGGAUAUGGAAAGUCACAUGAGGAUCACCCAUGUCCAAAACCAGAAGGGUGAGACUAAG | 458
10 | Eterna 6117727 (Exclusion NG 3) (ssRNA) RNA: GGUUGUCAUAGUCAUCCUUUCCGUACAUGAGGAUCACCCAUGUAGGAUAUGCUACUCACAGUGUGGCAGAAGGGCGUGUGUCUU | 17
11 | Eterna 15484 (Exclusion 5) (ssRNA) RNA: CUUUGAUGAGGAUAUCGAGGUUAGUACAUGAGGAUCACCCAUGUUAUCCAGGUGUCGGAUCGAGAAGGUAUUGGAC | 14.9
12 | Eterna 7691283 (Same State - Arginine B) (ssRNA) RNA: AUUCUAUUGUGAAGGAGCGCGACUAGUAGUGAUGUUACUAUAUGACUUUAGUCUUAAUUCUCGCAGGUAGGUCGCACAAUAUAUA | > 3000
13 | Eterna 6418068 (Inverted Exclusion NG 1) (ssRNA) RNA: CGUGCUAUGUAGAAGGCAGAUCUGAUUCAGAUCUGAGGAUAUACAUGAGGAUCACCCAUGUUAUGCACCAGCACGAGAGUGCAC | 7.12
14 | Eterna 9534 (Sensor v3, turn-off variant 2) (ssRNA) RNA: GGUACUAUCACCUGAGUGGUAGUGCCAUAAGCUUGUGAUACAUGAGGAUCACCCAUGUCCUCAUUUGCUCGUCUUAU | 600
15 | Eterna 6061522 (Exclusion 3) (ssRNA) RNA: AAUUCGGCAGGAUAUACAUGAGGAUCACCCAUGUAAAUUUUUCGUUUAACUUGAAUGUGUAGAAGGGCCAUUUA | 22.8
16 | Eterna 6120937 (Same State NG 1) (ssRNA) RNA: GCCAUCACAUGAGGAUAUGGCACCGUUUCGGUGCCAGAAGGCAUGUCAUAAGACAUGAGGAUCACCCAUGUAGUUAAGAUGGCA | 922
17 | Eterna 13336 (Sensor for hsa-mir-208a) (ssRNA) RNA: AGUCCAGCCAGAGCUGGACAAAAGCAUGUACAUGAGGAUCACCCAUGUUCAUGUACAAGCUUUUUGCUCGUCUUAAA | 592
